Changes are numbered by the printed parent chain. In names and notes the source's numbering stands. Several values for one entry are separate records, joined by “and”; a condition that tells them apart may be missing. Equal values may be shown once.
B1: KB001 mouse Fab VH D58G (Fab, V domains shown)
VH: EVQLKQSGPGLVAPSQSLSITCTVSGFSLSIYSVHWVRQPPGKGLEWLGMIWGGGSSGYNSALKSRLSISKDNSKSQVFLKMNSLQTDDTAMYYCARNGNFYAMDYWGQGTSVTVSS
VL: QIVLTQSPAIMSASLGERVTMTCTASSSVSSSFLHWYQQKPGSSPQLWIYSTSNLASGVPARFSGSGSGTSYSLTISSMEAEDAATYYCHQYHHSPYIYTFGGGTKLEIK
B2: KB001 mouse Fab VH S61R (Fab, V domains shown)
VH: B1 VH with G58D, S61R
VL: B1 VL
B3: KB001 mouse Fab VH Y59R (Fab, V domains shown)
VH: B1 VH with G58D, Y59R
VL: B1 VL
B4: KB001 mouse Fab VH Y59K (Fab, V domains shown)
VH: B1 VH with G58D, Y59K
VL: B1 VL
B5: KB001 mouse Fab VH N60P (Fab, V domains shown)
VH: B1 VH with G58D, N60P
VL: B1 VL
B6: KB001 mouse Fab VH Y59F (Fab, V domains shown)
VH: B1 VH with G58D, Y59F
VL: B1 VL
B7: KB001 mouse Fab VH S61G (Fab, V domains shown)
VH: B1 VH with G58D, S61G
VL: B1 VL
B8: KB001 mouse Fab VH Y59T (Fab, V domains shown)
VH: B1 VH with G58D, Y59T
VL: B1 VL
B9: KB001 mouse Fab VH Y59M/S57I (Fab, V domains shown)
VH: B1 VH with S57I, G58D, Y59M
VL: B1 VL
B10: KB001 mouse Fab VH S61M (Fab, V domains shown)
VH: B1 VH with G58D, S61M
VL: B1 VL
B11: KB001 mouse Fab VH N60S (Fab, V domains shown)
VH: B1 VH with G58D, N60S
VL: B1 VL
B12: KB001 mouse Fab VH S61W (Fab, V domains shown)
VH: B1 VH with G58D, S61W
VL: B1 VL
B13: KB001 mouse Fab VH N60T (Fab, V domains shown)
VH: B1 VH with G58D, N60T
VL: B1 VL
B14: KB001 mouse Fab VH N60Q (Fab, V domains shown)
VH: B1 VH with G58D, N60Q
VL: B1 VL
B15: KB001 mouse Fab VH S61F (Fab, V domains shown)
VH: B1 VH with G58D, S61F
VL: B1 VL
B16: KB001 mouse Fab VH S61Y (Fab, V domains shown)
VH: B1 VH with G58D, S61Y
VL: B1 VL

target: HRgpA-6H (Porphyromonas gingivalis) (UniProt P28784); experiment: ELISA, coated HRgpA-6H
Sequence of UniProt P28784 (P28784 228-860 limits assumed): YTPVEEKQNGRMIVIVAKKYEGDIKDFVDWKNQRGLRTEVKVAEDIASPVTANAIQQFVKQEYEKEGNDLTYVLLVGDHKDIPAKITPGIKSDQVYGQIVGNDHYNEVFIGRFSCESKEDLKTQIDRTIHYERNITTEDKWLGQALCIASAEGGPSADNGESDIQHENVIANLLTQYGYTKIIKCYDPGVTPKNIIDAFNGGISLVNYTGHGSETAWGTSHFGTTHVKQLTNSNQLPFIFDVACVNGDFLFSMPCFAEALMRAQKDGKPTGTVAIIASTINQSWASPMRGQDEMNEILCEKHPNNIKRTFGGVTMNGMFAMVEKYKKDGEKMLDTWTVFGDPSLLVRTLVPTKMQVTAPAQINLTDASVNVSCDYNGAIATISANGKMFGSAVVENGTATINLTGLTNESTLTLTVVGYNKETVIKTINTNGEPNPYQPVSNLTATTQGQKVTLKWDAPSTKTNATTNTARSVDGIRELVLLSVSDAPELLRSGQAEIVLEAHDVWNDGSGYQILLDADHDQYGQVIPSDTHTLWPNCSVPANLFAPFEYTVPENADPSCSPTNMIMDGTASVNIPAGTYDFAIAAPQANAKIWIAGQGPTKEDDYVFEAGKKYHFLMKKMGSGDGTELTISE

Binder | OD450 nm | Ratio OD(Variant)/OD(WT)
B1 | 0.778 | 0.984
B2 | 0.438 | 0.888
B3 | 0.633 | 0.8
B4 | 0.648 | 0.819
B5 | 0.44 and 0.428 | 0.892 and 0.867
B6 | 0.668 | 0.845
B7 | 0.46 and 0.476 | 0.932 and 0.965
B8 | 0.744 | 0.941
B9 | 0.701 | 0.886
B10 | 0.493 and 0.479 | 0.999 and 0.971
B11 | 0.452 | 0.916
B12 | 0.435 and 0.429 | 0.881 and 0.869
B13 | 0.406 | 0.823
B14 | 0.447 and 0.402 | 0.906 and 0.815
B15 | 0.432 and 0.473 | 0.875 and 0.958
B16 | 0.423 | 0.857

From patent publication US20240400654A1
